Here are results for one molecule from paper PMC12703448 (2025).

The star is where a group is joined. Farnesyl = CC(C)=CCC/C(C)=C/CC/C(C)=C/C*; FAM = fluorescein label

This test addresses T1, K-Ras4B C-terminal peptide (Homo sapiens, also: FAM-labelled).
T1 chain: {FAM}-KKKKKKSKTKC(Farnesyl)-OMe
Briefly: fluorescence polarization. On the technique in general: Fluorescence polarisation rises when a labelled molecule tumbles more slowly, as on binding a larger partner.

B1: PDE6D (protein)
chain: MSAKDERAREILRGFKLNWMNLRDAETGKILWQGTEDLSVPGVEHEARVPKKILKCKAVSRELNFSSTEQMEKFRLEQKVYFKGQCLEEWFFEFGFVIPNSTNTWQSLIEAAPESQMMPASVLTGNVIIETKFFDDDLLVSTSRVRLFYV
The term Kd denotes the concentration at which binding is half-saturated. A higher Kd goes with lower affinity. As for B1, the equilibrium dissociation constant (Kd) was determined as 150 nM.
